# Laboratory results taken from patent publication US20250019439A1 (Adimab, published 2025).
# B1: ADI-34132 (antibody, V domains shown)
# VH: QVQLVQSGAEVKKPGSSVKVSCKASGGTFSSYAISWVRQAPGQGLEWMGGIIPIFGTANYAQKFQGRVTITADESTSTAYMELSSLRSEDTAVYYCARGAPNYYGSGGYDDGWFDPWGQGTLVTVSS
# VL: DIQLTQSPSSLSASVGDRVTITCRASQSISSYLNWYQQKPGKAPKLLIYAASNLQSGVPSRFSGSGSGTDFTLTISSLQPEDFATYYCQQTLHTPITFGGGTKVEIK
# notes: anti-ID IgG
# Experiments:
# [1] = target: T1, CTL-62228; assay: SPR Carterra, yeast anti-ID
# T1 construct: also called glofitamab
# Method: (§1) Kinetic analysis was conducted at 25° C. in an HBSTE running buffer system (Carterra Cat #3630) using a Carterra LSA (Carterra USA, Salt Lake City, UT). The sample compartment was maintained at 20° C. for the duration of each experiment.
# (§2) For antibody capture experiments, a goat anti-human Fc antibody (Jackson ImmunoResearch) was covalently coupled to an HC30M sensor chip surface via standard amine coupling (1:1 EDC:NHS) and then blocked with ethanolamine (1.0 M, pH 8.5). Covalent coupling steps were performed in 25 mM MES buffer (Carterra, Cat #3625) plus 0.05% Tween20. The anti-CD3 antibodies (100 nM in running buffer) were flowed over discrete regions of interest on the chip surface for 5 minutes. […] Dissociation of the anti-idiotype antibodies was monitored for 300s. Several blank buffer samples were injected over the entire chip surface at the start of each non-regenerative kinetic cycle. The preceding blank buffer injection was used for blank surface subtraction. At the end of each non-regenerative kinetic cycle, all surfaces were regenerated via two 30s injections of 10 mM glycine, pH 1.7.
# (§3) For data processing and fitting, sensorgrams were double reference subtracted with a baseline drift correction of 4 RU. Sensorgrams were y-aligned and baseline corrected, filtered and cropped to include only the association and dissociation steps. Data was fitted to a 1:1 binding model using Carterra Kinetics Data Analysis software version 1.7.1.3055.
# [2] = target: T2, CTL-62240; assay: SPR Carterra, yeast anti-ID
# T2 construct: also called ONO-4685
# Method: as §1, §2, §3
# [3] = target: T3, CTL-62227; assay: SPR Carterra, yeast anti-ID
# T3 construct: also called odronextamab
# Method: as §1, §2, §3
# [4] = target: T4, ADI-26912; assay: SPR Carterra avidity, yeast anti-ID
# T4 construct: anti-CD3 antibody made in CHO cells, captured by anti-human Fc
# Method: as §1, §2, §3
# [5] = target: T5, ADI-48576; assay: SPR Carterra avidity, yeast anti-ID
# T5 construct: pH-dependent anti-CD3 antibody made in CHO cells
# Method: as §1, §2, §3
# [6] = target: T6, ADI-67445; assay: SPR Carterra avidity, yeast anti-ID
# T6 construct: anti-CD3 antibody made in CHO cells, captured by anti-human Fc
# Method: as §1, §2, §3
# [7] = target: T7, ADI-76357; assay: SPR Carterra avidity, yeast anti-ID
# T7 construct: anti-CD3 antibody made in CHO cells, captured by anti-human Fc
# Method: as §1, §2, §3
# [8] = target: T8, ADI-26943; assay: SPR Carterra avidity, yeast anti-ID
# T8 construct: anti-CD3 antibody made in CHO cells, captured by anti-human Fc
# Method: as §1, §2, §3
# [9] = target: T9, ADI-26924; assay: SPR Carterra avidity, yeast anti-ID
# T9 construct: anti-CD3 antibody made in CHO cells, captured by anti-human Fc
# Method: as §1, §2, §3
# [10] = target: T10, ADI-70327; assay: SPR Carterra avidity, yeast anti-ID
# T10 construct: anti-CD3 antibody made in CHO cells, captured by anti-human Fc
# Method: as §1, §2, §3
# [11] = target: T11, ADI-48587; assay: SPR Carterra avidity, yeast anti-ID
# T11 construct: pH-dependent anti-CD3 antibody made in CHO cells
# Method: as §1, §2, §3
# [12] = target: T12, ADI-50024; assay: SPR Carterra avidity, yeast anti-ID
# T12 construct: anti-CD3 antibody made in CHO cells, captured by anti-human Fc
# Method: as §1, §2, §3
# [13] = target: T13, ADI-67450; assay: SPR Carterra avidity, yeast anti-ID
# T13 construct: anti-CD3 antibody made in CHO cells, captured by anti-human Fc
# Method: as §1, §2, §3
# [14] = target: T14, ADI-74966; assay: SPR Carterra avidity, yeast anti-ID
# T14 construct: pH-dependent anti-CD3 antibody made in CHO cells
# Method: as §1, §2, §3
# [15] = target: T15, ADI-76359; assay: SPR Carterra avidity, yeast anti-ID
# T15 construct: anti-CD3 antibody made in CHO cells, captured by anti-human Fc
# Method: as §1, §2, §3
# [16] = target: T16, ADI-74965; assay: SPR Carterra avidity, yeast anti-ID
# T16 construct: pH-dependent anti-CD3 antibody made in CHO cells
# Method: as §1, §2, §3
# [17] = target: T17, ADI-67447; assay: SPR Carterra avidity, yeast anti-ID
# T17 construct: anti-CD3 antibody made in CHO cells, captured by anti-human Fc
# Method: as §1, §2, §3
# [18] = target: T18, ADI-74967; assay: SPR Carterra avidity, yeast anti-ID
# T18 construct: pH-dependent anti-CD3 antibody made in CHO cells
# Method: as §1, §2, §3
# [19] = target: T19, ADI-26920 IgG; assay: SPR Carterra avidity, yeast anti-ID
# T19 construct: anti-CD3 IgG
# Method: as §1, §2, §3
# [20] = target: T20, ADI-76360; assay: SPR Carterra avidity, yeast anti-ID
# T20 construct: anti-CD3 antibody made in CHO cells, captured by anti-human Fc
# Method: as §1, §2, §3
# [21] = target: T21, ADI-26909; assay: SPR Carterra avidity, yeast anti-ID
# T21 construct: anti-CD3 antibody made in CHO cells, captured by anti-human Fc
# Method: as §1, §2, §3
# [22] = target: T22, ADI-26921 IgG; assay: SPR Carterra avidity, yeast anti-ID
# T22 construct: anti-CD3 IgG
# Method: as §1, §2, §3
# [23] = target: T23, ADI-26913 IgG; assay: SPR Carterra avidity, yeast anti-ID
# T23 construct: anti-CD3 IgG
# Method: as §1, §2, §3
# [24] = target: T24, ADI-76358; assay: SPR Carterra avidity, yeast anti-ID
# T24 construct: anti-CD3 antibody made in CHO cells, captured by anti-human Fc
# Method: as §1, §2, §3
# [25] = target: T25, ADI-26916 IgG; assay: SPR Carterra avidity, yeast anti-ID
# T25 construct: anti-CD3 IgG
# Method: as §1, §2, §3
# [26] = target: T26, ADI-70330; assay: SPR Carterra avidity, yeast anti-ID
# T26 construct: anti-CD3 antibody made in CHO cells, captured by anti-human Fc
# Method: as §1, §2, §3
# [27] = target: T27, ADI-48592; assay: SPR Carterra avidity, yeast anti-ID
# T27 construct: pH-dependent anti-CD3 antibody made in CHO cells
# Method: as §1, §2, §3
# [28] = target: T28, ADI-26906 IgG; assay: SPR Carterra avidity, yeast anti-ID
# T28 construct: anti-CD3 IgG
# Method: as §1, §2, §3
# [29] = target: T29, ADI-74968; assay: SPR Carterra avidity, yeast anti-ID
# T29 construct: pH-dependent anti-CD3 antibody made in CHO cells
# Method: as §1, §2, §3
# [30] = target: T30, ADI-76361; assay: SPR Carterra avidity, yeast anti-ID
# T30 construct: anti-CD3 antibody made in CHO cells, captured by anti-human Fc
# Method: as §1, §2, §3
# [31] = target: T31, ADI-70326; assay: SPR Carterra avidity, yeast anti-ID
# T31 construct: anti-CD3 antibody made in CHO cells, captured by anti-human Fc
# Method: as §1, §2, §3
# [32] = target: T32, ADI-48650; assay: SPR Carterra avidity, yeast anti-ID
# T32 construct: pH-dependent anti-CD3 antibody made in CHO cells
# Method: as §1, §2, §3
# [33] = target: T33, ADI-76362; assay: SPR Carterra avidity, yeast anti-ID
# T33 construct: anti-CD3 antibody made in CHO cells, captured by anti-human Fc
# Method: as §1, §2, §3
# [34] = target: T34, CTL-62223; assay: SPR Carterra avidity, yeast anti-ID
# T34 construct: also called mosunetuzumab
# Method: as §1, §2, §3
# [35] = target: T35, ADI-26915; assay: SPR Carterra avidity, yeast anti-ID
# T35 construct: anti-CD3 antibody made in CHO cells, captured by anti-human Fc
# Method: as §1, §2, §3
# [36] = target: T36, ADI-26919; assay: SPR Carterra avidity, yeast anti-ID, *koff limit
# T36 construct: anti-CD3 antibody made in CHO cells, captured by anti-human Fc
# Method: as §1, §2, §3
# [37] = target: T37, ADI-22523 IgG; assay: BLI; tip anti-ID IgG, solution ADI-22523 IgG
# T37 construct: anti-CD3 IgG
# Method: ForteBio affinity measurements were performed generally as previously described (Estep et al., MAbs. 2013 5(2):270-8). Briefly, ForteBio affinity measurements were performed by loading antibody IgG or Fabs on-line onto AHC sensors. Sensors were equilibrated off-line in assay buffer for 30 minutes and then monitored on-line for 60 seconds for baseline establishment. For avid binding measurement, sensors with loaded antibodies were exposed to IgG or Fab solutions for 3 minutes, afterwards they were transferred to assay buffer for 3 minutes for off-rate measurement. Kinetics data were fit using a 1:1 binding model in the data analysis software provided by ForteBio to obtain equilibrium dissociation constant (KD=koff/kₒₙ) values. In each column, tip-immobilized antibodies are listed first and solution antibodies second.
# T14 sequence (VH, as listed by the source, chain 1 of 2): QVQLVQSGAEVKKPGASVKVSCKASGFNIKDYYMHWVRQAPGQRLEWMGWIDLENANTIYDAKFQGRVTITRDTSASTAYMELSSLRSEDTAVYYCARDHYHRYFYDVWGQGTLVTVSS
# T14 sequence (VL, as listed by the source, chain 2 of 2): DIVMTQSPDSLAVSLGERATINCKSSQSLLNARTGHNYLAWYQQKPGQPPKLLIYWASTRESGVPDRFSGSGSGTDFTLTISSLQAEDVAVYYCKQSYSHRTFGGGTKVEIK
# T18 sequence (VL, as listed by the source, chain 2 of 2): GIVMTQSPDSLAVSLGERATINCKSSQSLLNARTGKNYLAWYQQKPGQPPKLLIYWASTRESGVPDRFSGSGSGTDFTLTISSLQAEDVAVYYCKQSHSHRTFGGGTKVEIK
# T11 sequence (VL, as listed by the source, chain 2 of 2): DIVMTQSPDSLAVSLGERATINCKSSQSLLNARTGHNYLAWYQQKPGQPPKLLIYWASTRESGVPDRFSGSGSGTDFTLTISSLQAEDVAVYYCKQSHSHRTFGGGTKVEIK
# T22 sequence (VH, as listed by the source limits assumed, chain 1 of 2): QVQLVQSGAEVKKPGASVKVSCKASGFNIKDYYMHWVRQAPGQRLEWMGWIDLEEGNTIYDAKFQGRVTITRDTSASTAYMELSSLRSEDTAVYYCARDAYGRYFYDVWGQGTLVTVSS
# T22 sequence (VL, as listed by the source limits assumed, chain 2 of 2): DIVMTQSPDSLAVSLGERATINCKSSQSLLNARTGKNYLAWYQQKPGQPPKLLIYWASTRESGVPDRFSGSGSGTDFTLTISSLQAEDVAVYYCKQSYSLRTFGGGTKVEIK
# T8 sequence (VH, as listed by the source, chain 1 of 2): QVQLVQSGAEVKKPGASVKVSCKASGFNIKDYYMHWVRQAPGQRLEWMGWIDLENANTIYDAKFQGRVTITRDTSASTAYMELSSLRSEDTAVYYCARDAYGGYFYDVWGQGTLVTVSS
# T8 sequence (VL, as listed by the source, chain 2 of 2): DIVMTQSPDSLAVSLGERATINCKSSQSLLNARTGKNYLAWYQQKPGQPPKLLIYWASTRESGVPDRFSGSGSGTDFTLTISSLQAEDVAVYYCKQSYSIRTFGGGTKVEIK
# T9 sequence (VH, as listed by the source, chain 1 of 2): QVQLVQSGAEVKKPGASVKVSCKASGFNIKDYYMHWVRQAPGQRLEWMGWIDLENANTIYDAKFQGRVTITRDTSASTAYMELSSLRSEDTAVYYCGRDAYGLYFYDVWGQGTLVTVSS
# T32 sequence (VH, as listed by the source, chain 1 of 2): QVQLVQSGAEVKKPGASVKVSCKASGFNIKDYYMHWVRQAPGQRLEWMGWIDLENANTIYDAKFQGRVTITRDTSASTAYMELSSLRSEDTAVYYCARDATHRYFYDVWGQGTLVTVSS
# T32 sequence (VL, as listed by the source, chain 2 of 2): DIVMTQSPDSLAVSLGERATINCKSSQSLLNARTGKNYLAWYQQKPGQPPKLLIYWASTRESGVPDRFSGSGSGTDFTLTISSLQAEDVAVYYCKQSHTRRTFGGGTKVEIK
# T10 sequence (VH, as listed by the source limits assumed, chain 1 of 2): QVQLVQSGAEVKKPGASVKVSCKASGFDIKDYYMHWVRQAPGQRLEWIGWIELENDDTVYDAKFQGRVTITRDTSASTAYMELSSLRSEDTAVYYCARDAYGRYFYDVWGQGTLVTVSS
# T10 sequence (VL, as listed by the source limits assumed, chain 2 of 2): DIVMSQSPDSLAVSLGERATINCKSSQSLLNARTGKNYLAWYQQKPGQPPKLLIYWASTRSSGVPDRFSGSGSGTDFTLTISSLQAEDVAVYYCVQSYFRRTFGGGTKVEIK
# T33 sequence (VH, as listed by the source, chain 1 of 2): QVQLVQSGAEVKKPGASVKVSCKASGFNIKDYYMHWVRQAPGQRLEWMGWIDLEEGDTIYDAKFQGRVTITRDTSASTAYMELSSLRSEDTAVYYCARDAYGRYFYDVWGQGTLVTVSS
# T30 sequence (VH, as listed by the source, chain 1 of 2): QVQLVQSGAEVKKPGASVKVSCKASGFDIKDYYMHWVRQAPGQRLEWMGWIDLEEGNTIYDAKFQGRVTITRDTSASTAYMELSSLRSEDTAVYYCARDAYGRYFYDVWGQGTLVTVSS
# T15 sequence (VH, as listed by the source, chain 1 of 2): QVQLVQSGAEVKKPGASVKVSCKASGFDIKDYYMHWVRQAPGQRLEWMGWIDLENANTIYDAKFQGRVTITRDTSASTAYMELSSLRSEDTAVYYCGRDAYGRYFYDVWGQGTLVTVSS
# T3 sequence (VH, as listed by the source, chain 1 of 2): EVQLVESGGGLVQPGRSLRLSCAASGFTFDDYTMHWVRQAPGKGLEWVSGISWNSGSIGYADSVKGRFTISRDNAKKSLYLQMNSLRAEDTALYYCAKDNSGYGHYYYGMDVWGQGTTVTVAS
# T3 sequence (VL, as listed by the source, chain 2 of 2): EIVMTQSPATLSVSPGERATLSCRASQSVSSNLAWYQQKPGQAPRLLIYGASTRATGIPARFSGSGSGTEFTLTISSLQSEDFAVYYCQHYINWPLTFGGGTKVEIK
# T37 sequence (VH, as listed by the source limits assumed, chain 1 of 2): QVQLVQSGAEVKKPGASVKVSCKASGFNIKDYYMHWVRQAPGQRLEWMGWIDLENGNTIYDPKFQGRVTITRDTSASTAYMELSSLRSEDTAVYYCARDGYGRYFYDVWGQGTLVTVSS
# T37 sequence (VL, as listed by the source limits assumed, chain 2 of 2): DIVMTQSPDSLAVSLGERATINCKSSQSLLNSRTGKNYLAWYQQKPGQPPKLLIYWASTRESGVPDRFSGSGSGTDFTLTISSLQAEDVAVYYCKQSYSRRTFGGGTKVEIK
# T17 sequence (VH, as listed by the source limits assumed, chain 1 of 2): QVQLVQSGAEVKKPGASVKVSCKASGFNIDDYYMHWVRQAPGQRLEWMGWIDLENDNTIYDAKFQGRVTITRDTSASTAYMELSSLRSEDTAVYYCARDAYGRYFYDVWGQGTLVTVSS
# T17 sequence (VL, as listed by the source limits assumed, chain 2 of 2): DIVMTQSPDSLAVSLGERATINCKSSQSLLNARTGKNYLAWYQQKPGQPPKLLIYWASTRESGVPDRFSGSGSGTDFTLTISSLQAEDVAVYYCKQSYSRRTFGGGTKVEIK
# T25 sequence (VH, as listed by the source, chain 1 of 2): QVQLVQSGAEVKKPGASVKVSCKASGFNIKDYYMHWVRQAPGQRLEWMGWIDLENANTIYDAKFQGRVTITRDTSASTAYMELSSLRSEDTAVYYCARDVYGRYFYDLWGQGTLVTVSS
# T27 sequence (VH, as listed by the source, chain 1 of 2): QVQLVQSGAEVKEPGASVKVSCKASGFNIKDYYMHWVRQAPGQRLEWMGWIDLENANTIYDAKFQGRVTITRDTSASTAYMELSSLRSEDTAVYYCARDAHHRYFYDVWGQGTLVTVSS
# T27 sequence (VL, as listed by the source, chain 2 of 2): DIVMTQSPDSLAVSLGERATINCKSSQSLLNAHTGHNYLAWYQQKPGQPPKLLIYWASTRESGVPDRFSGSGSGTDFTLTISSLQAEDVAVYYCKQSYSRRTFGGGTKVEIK
# T21 sequence (VH, as listed by the source limits assumed, chain 1 of 2): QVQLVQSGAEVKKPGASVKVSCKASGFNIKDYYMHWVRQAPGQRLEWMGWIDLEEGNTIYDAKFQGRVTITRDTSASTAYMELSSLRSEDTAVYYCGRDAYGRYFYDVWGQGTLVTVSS
# T20 sequence (VH, as listed by the source, chain 1 of 2): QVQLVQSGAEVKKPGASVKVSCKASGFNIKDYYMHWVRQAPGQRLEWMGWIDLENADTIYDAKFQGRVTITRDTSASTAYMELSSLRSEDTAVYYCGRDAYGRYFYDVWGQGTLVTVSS
binder,measurement,setting,value
B1,binding result,[1],no binding (tested: up to 200 nM)
same,binding result,[2],no binding (tested: up to 200 nM)
same,binding result,[3],no binding (tested: up to 200 nM)
same,binding result,[4],binds
same,binding result,[5],binds
same,Kd,[6],650 pM
same,Kd,[7],570 pM
same,Kd,[8],150 pM
same,Kd,[9],200 pM
same,binding result,[10],binds
same,binding result,[11],binds
same,Kd,[12],350 pM
same,binding result,[13],binds
same,Kd,[14],580 pM
same,Kd,[15],120 pM
same,binding result,[16],binds
same,Kd,[17],560 pM
same,Kd,[18],280 pM
same,Kd,[19],150 pM
same,Kd,[20],610 pM
same,Kd,[21],900 pM
same,Kd,[22],360 pM
same,Kd,[23],930 pM
same,binding result,[24],binds
same,Kd,[25],600 pM
same,binding result,[26],binds
same,binding result,[27],binds
same,Kd,[28],160 pM
same,binding result,[29],binds
same,Kd,[30],150 pM
same,binding result,[31],binds
same,binding result,[32],binds
same,Kd,[33],820 pM
same,Kd,[34],990 pM
same,binding result,[35],binds
same,Kd,[36],44 pM
same,Kd,[37],84900 pM
